The values that follow come from patent publication US20220047712A1 (FORTIS THERAPEUTICS, published 2022).

The target of the experiment is T1, CD46 (human, UniProt P15529 35-392).
T1 construct: whole, on cells; also called CD46 complement regulatory protein; cluster of differentiation 46
T1 sequence (looked up): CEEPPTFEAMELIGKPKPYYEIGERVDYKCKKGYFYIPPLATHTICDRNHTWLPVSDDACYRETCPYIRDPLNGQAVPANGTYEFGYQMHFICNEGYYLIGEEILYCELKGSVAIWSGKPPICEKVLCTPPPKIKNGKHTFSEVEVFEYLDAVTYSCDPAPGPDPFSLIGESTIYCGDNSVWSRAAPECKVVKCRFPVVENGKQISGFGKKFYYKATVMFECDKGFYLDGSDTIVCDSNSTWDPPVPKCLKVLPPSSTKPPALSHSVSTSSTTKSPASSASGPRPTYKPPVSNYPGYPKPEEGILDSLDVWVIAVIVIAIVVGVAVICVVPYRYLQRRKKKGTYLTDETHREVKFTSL
The experiment can be described thus: flow cytometry on cells, YS5FL at 10 µg/mL, AlexaFluor-488 anti-human IgG1 Fc secondary. How it is done: Cell surface CD46 was detected by flow cytometry. Cells were harvested, centrifuged and resuspended in FACS buffer (PBS+2% FBS) at a concentration of 1×10⁶ cells/mL. 100 μL of cell suspension was dispensed into each well of a 96-well plate, 100 μL of YS5FL at 10 μg/mL was added to the wells and incubated for 1 hour at 4° C. The cells were washed three times with FACS buffer. After the third wash, the cells were resuspended in 100 μL 1:500 diluted AlexaFluor-488 mouse anti-Human IgG1 Fc secondary antibody and incubated for 1 hour at 4° C. in the dark. The cells were washed three times with 200 μL PBS by centrifuging at 2000 RPM for 5 minutes. After the last wash, the cells were resuspended in 300 μL cold PBS and analyzed on a FACSVerse™ (BD Biosciences) flow cytometer. YS5FL bound specifically to the surface of LnCap-C4-2B, LnCap-C4, DU145, PC3-luc, and Hs27 prostate cancer cells, but not to non-tumor BPH1 cells. FIG. 1. Likewise, YS5FL bound specifically to the surface of RPMI8226, MM.1S, MM.1R, and INA6 multiple myeloma cells. FIG. 2.

B1: YS5FL (antibody, human IgG1, lambda, V domains shown)
VH: QVQLVQSGGGVVQPGRSLRLACAASGLTVNNYAMHWVRQAPGKGLEWVAVISYDGNNKYYADSVKGRFTISRDNSKNTLYLQMNSLRAEDTAVYYCAKGGGYFDLWGRGTLVTVSS
VL: QSVLTQPPSVSGAPGQRVTISCTGSSSNIGAGYDVHWYQQLPGTAPKLLIYGNNNRPSGVPDRFSGSKSGTSASLAITGLQAEDEADYYCSSYTSGTWLFGGGTKLTVLG
notes: FOR46 is this antibody conjugated to MMAE via mc-vc-PAB; also called anti-CD46 YS5FL antibody; YS5FL mAb
On to B1, for which the binding result is given as “binds”.
